Results taken from the supplement of paper PMC10567573.
± gives the standard deviation.

Assay: protein stability index of a GFP-peptide fusion (GPS, HEK-293T) (PSI 1-6); higher = more stable
[1] = treatment: DMSO, c terminus: a fixed tail appended
[2] = treatment: MLN4924 1 uM, 8 h, c terminus: a fixed tail appended
[3] = treatment: DMSO, c terminus: native
[4] = treatment: MLN4924 1 uM, 8 h, c terminus: native
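Further: 24-mer peptide tiles fused after GFP, lentivirally expressed, FACS-sorted into six equal bins by GFP/DsRed ratio, decoded by Illumina sequencing, PSI is the read-weighted mean bin number.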

Sequence	protein stability index [1]	protein stability index [2]	protein stability index [3]	protein stability index [4]
NIVFGTGPRVGEALVSHPEVPLIS [ALDH8A1]	2.9 ± 0.21	2.83 ± 0.27	–	–
CRGKKPSRIYGQAMAIINGSLYVF [KLHDC10]	3.22 ± 0.66	2.51 ± 0.73	–	–
VLEVTEESIDFDQGELADQDVDPV [FBXO33]	5.34 ± 0.19	5.57 ± 0.2	–	–
AAENEFVLLKKDVDAAYANKVELQ [KRT71]	4.7 ± 0.21	4.54 ± 0.39	–	–
RRPRRVEAERPHSLIGVIRETVL [FAM189A2]	–	–	3.39 ± 0.12	3.42 ± 0.22
WLLTHLLWFANAHLLSWFSPTIIF [DHCR7]	3.36 ± 0.17	2.96 ± 0.3	–	–
GQMSTPETPQPSPPGGSGSEPYKL [HNF4A]	5.16 ± 0.21	5.17 ± 0.19	–	–
STEDMERALSEYLAVFARCLAGCE [P3H4]	3.59 ± 0.2	3.37 ± 0.32	–	–
ILGKVILWILHLLLECYIQYHHSK [TMEM192]	2.99 ± 0.51	2.9 ± 0.31	–	–
SGGELFDFLAEKESLTEDEATQFL [DAPK3]	4.84 ± 0.19	4.96 ± 0.47	–	–
NKLWELCCQWLKPKMRSKEQILEL [ZNF449]	2.62 ± 0.35	2.9 ± 0.56	–	–
GLEDAGLDPHFVPTELWPQEAVPL [TEX19]	4.44 ± 0.13	4.62 ± 0.12	–	–
RPQSAQSSFPPSPGPSPDVQLATL [AUP1]	4.34 ± 0.44	4.34 ± 0.47	–	–
NLSKSRKILRSMSRKVTTNKLLLS [VTI1B]	2.85 ± 0.35	2.92 ± 0.29	–	–
KNQGEENGFPDSTGDPLPEISKDN [EDARADD]	5.5 ± 0.15	5.54 ± 0.067	–	–
MQPESGANGTVIAEFILLGLLEAP [OR3A1]	2.18 ± 0.24	2.33 ± 0.42	–	–
LSLTSSASRLLTTALTSFCAKYTY [FANCE]	2.72 ± 0.48	2.81 ± 0.67	–	–
REEEERERLQKEEEKRRREEEERL [ACBD3]	5.5 ± 0.35	5.74 ± 0.21	–	–
VHRKSCSTGEAGTDGDHNVYPRPP [ZC2HC1C]	4.29 ± 0.33	4.45 ± 0.37	–	–
METNGSTEGSRSRSRSLDIQPSSE [SPAG8]	5.54 ± 0.33	5.35 ± 0.064	–	–
QICAQVSFFFPPVNLPISFFRKLL [NLN]	2.76 ± 0.039	3.45 ± 0.17	–	–
VRANDINYQDQIPRTLEEFVGFH [FEM1B]	–	–	3.21 ± 0.16	3.2 ± 0.48
QQKEEEEEMAVVPQGLFRGGKSGE [CHGA]	5.52 ± 0.28	5.63 ± 0.12	–	–

Sequence	protein stability index [1]	protein stability index [2]	protein stability index [3]	protein stability index [4]
IETGENVTGMELEFKRLASSKAHT [PTPRD]	4.35 ± 0.12	4.33 ± 0.29	–	–
QNPAGELEGFQAQGHPPSLFPPKA [ATE1]	4.66 ± 0.075	4.82 ± 0.17	–	–
LNLDIGQVYKETRLFLDGEEEKEW [AASDHPPT]	3.95 ± 0.43	4.09 ± 0.44	–	–
QKLDAFLQPLSKPLSSQPQAIVTE [MLH1]	4.17 ± 0.3	4.21 ± 0.21	–	–
IRTYLGRSPLVSGDESSLLLNAAS [RHOBTB3]	2.62 ± 0.35	2.46 ± 0.34	–	–
KSLEGGGTAFDAETDSEMNSQESR [SMG5]	5.5 ± 0.15	5.58 ± 0.15	–	–
ATCRLCGEQVGRGPGFHAGTSALW [ZBED3]	2.2 ± 0.57	2.39 ± 0.12	–	–
RVLDGKEAKAVGLISHVLEQNQEG [AUH]	4.53 ± 0.38	4.95 ± 0.088	–	–
GVIQSVSSWKHGSGTQYVSTRQTQ [C18orf25]	3.19 ± 0.11	3.52 ± 0.35	–	–
ALVIMWQKHYVYGPLPQSFDKEWV [COX4I1]	2.88 ± 0.33	2.92 ± 0.39	–	–
QSAYDVADMLKQYFRDLPEPLMTN [DLC1]	2.67 ± 0.32	2.72 ± 0.33	–	–
SQKNEKALTNIQNCMAEKRETVLI [C8orf76]	3.54 ± 0.29	3.69 ± 0.19	–	–
IAEDGTKEIESQGSIPGFLISSGM [TAF7L]	4.25 ± 0.28	4.21 ± 0.38	–	–
IEAKEACDWLRATGFPQYAQLYED [DLC1]	3.21 ± 0.43	3.31 ± 0.083	–	–
SFRENWQRAWVRALNEQACRNGSS [C2CD2L]	2.7 ± 0.24	2.45 ± 0.49	–	–
SDSLLQSWNSQSSLLDVQRVPSFE [ETS2]	3.92 ± 0.3	3.76 ± 0.17	–	–
GVPVQPVLIRYPNSLDTTSWAWRG [LPCAT4]	2.28 ± 0.26	2.34 ± 0.31	–	–
NNFDNLDFDLDLVPWESDIWDINN [ATF6]	3.2 ± 0.21	3.46 ± 0.11	–	–
WTMQAYERNFWDPSPQLDTQQEIK [WDR41]	3.16 ± 0.19	3.46 ± 0.47	–	–
QHVPEELDLSSSSQMSPLSLYGEN [ATF6]	4.97 ± 0.19	5 ± 0.18	–	–
CLIQKAQWTVGKLNCPFCGARLGG [RNF180]	2.15 ± 0.18	2.79 ± 0.36	–	–
CPASNECEITKRRRKACQACRFTK [ESRRA]	3.94 ± 0.33	4.26 ± 0.23	–	–
QLLKNNEKLITWLNKELNENQLVR [SASS6]	1.88 ± 0.62	2.08 ± 0.38	–	–

Sequence	protein stability index [1]	protein stability index [2]	protein stability index [3]	protein stability index [4]
IVIGILSAYISNYAFANVFHGWKY [SLC2A12]	3.01 ± 0.51	3.25 ± 0.68	–	–
HVLALGLGIYIGKRLSTPSASTY [BNIP3L]	–	–	3.43 ± 0.86	3.2 ± 0.64
CKVGASSDPCGQLRPTLLLTSLHH [PNLIPRP1]	2.1 ± 0.24	2.22 ± 0.097	–	–
EMETLETSTKTDSEEGSWAQTLAY [PPFIA4]	5.04 ± 0.15	4.62 ± 0.069	–	–
GGAQASGTLIGVGQSVTAVGRIIA [MFSD9]	3.38 ± 0.34	3.42 ± 0.2	–	–
IASIADVCESMKEQLLVLVEWAKY [HNF4A]	2.42 ± 0.36	2.15 ± 0.38	–	–
MCLSPDRKMEVEELSPLALGRFSL [CDC25B]	2.57 ± 0.19	2.71 ± 0.24	–	–
QKLREESAARVVLTSLLACLPAGP [DUSP5]	2.15 ± 0.26	2.06 ± 0.13	–	–
YTSAGTYGLDSVKKKCLEWLLNNL [GMCL1]	2.17 ± 0.19	2.16 ± 0.26	–	–
QKQRLREILEQQQQERNDTNFHGV [ZNF277]	4.53 ± 0.3	4.59 ± 0.23	–	–
ASVAMICAIASGSELSESAFGYFI [SLC29A1]	2.94 ± 0.68	2.48 ± 0.52	–	–
MSDLLSVFLHLLLLFKLVAPVTFR [CPN1]	3.09 ± 0.26	3.33 ± 0.17	–	–
AMRAGVLADDHLIEVNGENVEDAS [PDZK1]	5.41 ± 0.23	5.3 ± 0.11	–	–
VVEKLNLFLDLLQSYKDLCERHEK [SNX8]	2.19 ± 0.32	2.23 ± 0.25	–	–
VFVLIDEVESLTAARNACRAGTEP [TRIP13]	2.35 ± 0.2	2.63 ± 0.36	–	–
SSLFMDTEKSGKREFDVRQTPQVN [WEE1]	4.58 ± 0.26	4.71 ± 0.27	–	–
LKLSIMSEEELTHIFGDLDSYIPL [NET1]	2.21 ± 0.1	2.28 ± 0.2	–	–
VERILARGENLEHLRNKTEDLEAT [VAMP8]	5.33 ± 0.2	5.37 ± 0.14	–	–
APSATIHQGEEEGPLDIWAVVKPG [FBXO34]	4.71 ± 0.27	4.79 ± 0.13	–	–
KVFEELLLDADWSINAGSWMWLSC [CRY1]	2.28 ± 0.49	2.58 ± 0.27	–	–
VHNAMDNYECNLYTFLYLVCISTK [FEM1B]	2.82 ± 0.59	2.2 ± 0.53	–	–
DLNIQLLKDGYRLDEIPDDEDLDL [FAM219A]	5.17 ± 0.16	5.16 ± 0.079	–	–
PLWPGKSDVDQLYLIIRTLGKLIP [CDKL4]	3.04 ± 0.39	2.34 ± 0.61	–	–

Sequence	protein stability index [1]	protein stability index [2]	protein stability index [3]	protein stability index [4]
LAVLGADERIFSLTRRLAHGEELR [HAGHL]	2.82 ± 0.23	2.81 ± 0.38	–	–
SGISFPSVVDHPMPEERASKYENY [HESX1]	4.25 ± 0.32	4.22 ± 0.3	–	–
HSSDEDEDEDDEEDFEDDDEWED [WASL]	–	–	3.19 ± 0.17	3.33 ± 0.47
DSCDRLTQSWSSQSSFNSLQRVPS [ETS1]	3.99 ± 0.24	4.07 ± 0.23	–	–
HRDLKPENLLLASKLKGAAVKLAD [CAMK2A]	3.67 ± 0.22	3.62 ± 0.091	–	–
AYISLVEEEDQHMKLSLGGSEMGL [KLHL13]	2.98 ± 0.38	3.06 ± 0.52	–	–
TSHSLPESSVPSTVGCSSQHTPDQ [PLEKHN1]	5.36 ± 0.17	5.28 ± 0.16	–	–
SEAKSHSSADDASAWSNIQEAPLQ [FAN1]	5.29 ± 0.31	5.04 ± 0.46	–	–
GGKNCKKPAEYGYVSLGRLGAAKG [CEBPB]	3.64 ± 0.27	3.52 ± 0.54	–	–
GMASFRFPETTFISVTAYQNPQIT [TBX6]	2.34 ± 0.62	2.29 ± 0.11	–	–
AGSTAGAAETRGAVEGAARTTPSR [PALM]	5.11 ± 0.36	5.14 ± 0.27	–	–
QYLAERYKVNTPMLQSFINYCLLF [SLC35F2]	2.58 ± 0.6	2.64 ± 0.53	–	–
IVDIKPANMEDLTEVITASEFHPH [PPP2R2C]	3.92 ± 0.28	3.9 ± 0.41	–	–
TGAACRLVEAVLSGEVLNGAAVVR [HDAC6]	2.13 ± 0.35	2.27 ± 0.28	–	–
PPTINGIKGLQRKERLKPAHIHLQ [KRT34]	3.34 ± 0.15	3.59 ± 0.46	–	–
SGPQPRLPPCLLPLSPPTAPDRAT [TRIB3]	4.48 ± 0.27	4.61 ± 0.28	–	–
HYYKENDPSVRLKIASLLGLLSKT [INTS4]	2.05 ± 0.31	2.18 ± 0.23	–	–
TYRSLLESEDCKLPCNPCATTNAS [KRT34]	3.9 ± 0.25	4.09 ± 0.2	–	–
AVPKRLLEIVGREGVSLTAVLTTH [HAGHL]	2.5 ± 0.39	2.2 ± 0.6	–	–
PVSGKAVFMEFGPPNQQMSPSPMS [DLX1]	3.5 ± 0.26	3.55 ± 0.41	–	–
